Assay results published in patent publication US20120003668A1, “HIGH RESOLUTION COMPLEX STRUCTURE AND ALLOSTERIC EFFECTS OF LOW MOLECULAR WEIGHT ACTIVATORS ON THE PROTEIN KINASE PDK1” (UNIVERSITAET DES SAARLANDES, priority 2008, published 2012).
Where a chain is given by its changes, count along the chain named.

Legend:
[1] = target: T1, PDK1 Tyr126 mutant (Homo sapiens, UniProt O15530, Y126A); test: Biacore binding of PIFtide (data of Komander et al. 2005); details: applicant's estimate from the published biacore data
T1 sequence (O15530 1-556 Y126A): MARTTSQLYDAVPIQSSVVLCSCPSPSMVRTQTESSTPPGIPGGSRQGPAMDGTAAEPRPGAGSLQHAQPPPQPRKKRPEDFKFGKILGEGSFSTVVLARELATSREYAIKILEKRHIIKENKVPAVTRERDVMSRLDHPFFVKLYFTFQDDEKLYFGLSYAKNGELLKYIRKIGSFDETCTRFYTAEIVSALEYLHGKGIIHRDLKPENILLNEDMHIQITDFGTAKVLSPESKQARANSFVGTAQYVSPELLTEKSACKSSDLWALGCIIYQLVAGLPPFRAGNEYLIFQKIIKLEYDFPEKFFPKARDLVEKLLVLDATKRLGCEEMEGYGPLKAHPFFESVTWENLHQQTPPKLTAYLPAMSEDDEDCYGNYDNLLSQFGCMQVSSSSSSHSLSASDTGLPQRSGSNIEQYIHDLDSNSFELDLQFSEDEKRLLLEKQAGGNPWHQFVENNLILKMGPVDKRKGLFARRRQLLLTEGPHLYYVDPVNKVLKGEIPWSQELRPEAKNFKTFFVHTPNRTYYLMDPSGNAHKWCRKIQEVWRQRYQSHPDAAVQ

[2] = system: PDK1; test: PDK1 protein kinase activity test with T308tide substrate; assay type: biochemical, human; details: T308tide as substrate
Method: In brief, PDK1 activity assay was performed at room temperature (22° C.) in a 20 μl mix containing 50 mM Tris pH 7.5, 0.05 mg/ml BSA, 0.1% β-mercaptoethanol, 10 mM MgCl2, 100 μM [γ^32P]ATP (5-50 cpm/pmol), 0.003% Brij, 150 ng PDK1, and T308tide (from 0.1 to 1 mM). […] Experiments were repeated at least twice.

[3] = target: T2, PDK1[Phe224Trp] (Homo sapiens, UniProt O15530, F224W); test: Surface plasmon resonance (BiaCore) on biotin-P-HM-S6K chip, Phe224Trp mutant; assay type: binding; details: protein pre-incubated with PIFtide
T2 construct: The catalytic domain (CD) of PDK1 50-359 and its mutants Phe224Trp and Thr226Trp were expressed in insect cells and purified; made in house; host or cells: insect cells
T2 sequence (O15530 50-359 F224W): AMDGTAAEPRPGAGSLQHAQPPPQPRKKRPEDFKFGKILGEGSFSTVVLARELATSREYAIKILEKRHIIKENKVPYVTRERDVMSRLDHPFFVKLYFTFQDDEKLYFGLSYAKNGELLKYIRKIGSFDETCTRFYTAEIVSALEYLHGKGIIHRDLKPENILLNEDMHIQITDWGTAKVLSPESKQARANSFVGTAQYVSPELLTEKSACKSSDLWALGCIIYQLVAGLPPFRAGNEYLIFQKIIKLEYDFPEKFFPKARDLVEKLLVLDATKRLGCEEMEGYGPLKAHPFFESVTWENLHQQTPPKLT
Method: (§1) Surface Plasmon resonance (BiaCore) and alpha-screen interaction and displacement assays: Binding of GST-PDK1 to a P-HM-polypeptide derived from S6K1 shown in FIG. 6 was analysed by surface plasmon resonance on a BiaCore 3000 system using a streptavidin-coated Sensor chip (SA) and biotin-P-HM-polypeptide, as previously described (Biondi, R. M. et al., Embo. J. 20:4380-4390 (2001). The interaction of His-PDK1 with biotin-PIFtide and the displacement by compounds shown in FIG. 3 was performed using the alpha-screen Ni-Chelate kit (Perkin Elmer) on an Envision 2104 multilabel system (Perkin Elmer).
(§2) BiaCore analysis was performed as described previously (Biondi, R. M. et al., Embo. J. 19:979-988 (2000)). […] Since both mutants were performed on the same construct of PDK1, their mass should be very similar and therefore should also produce 600RU when all biotin-(P)HM-S6K polypeptides on the same chip are bound to the mutant PDK1 proteins. Unfortunately, when mutant PDK1 Phe224Trp and PDK1 Thr226Trp were analysed, the injection of the mutants at concentrations higher than 1.3 μM prompted unspecific effects, therefore making difficult the evaluation. […]

[4] = target: T3, PDK1[Thr226Trp] (Homo sapiens, UniProt O15530, T226W); test: Surface plasmon resonance (BiaCore) on biotin-P-HM-S6K chip, Thr226Trp mutant; assay type: binding; details: protein pre-incubated with PIFtide
T3 construct: The catalytic domain (CD) of PDK1 50-359 and its mutants Phe224Trp and Thr226Trp were expressed in insect cells and purified; made in house; host or cells: insect cells
T3 sequence (O15530 50-359 T226W): T2 sequence (O15530 50-359 F224W) with W175F, T177W
Method: as §1, §2

[5] = target: T4, PDK1 50-359 [Y288G;Q292A] (Homo sapiens, UniProt O15530, Q292A/Y288G); test: Amide 1H/2H exchange and mass spectrometry
T4 sequence (O15530 with tags, fused parts or gaps Y288G/Q292A): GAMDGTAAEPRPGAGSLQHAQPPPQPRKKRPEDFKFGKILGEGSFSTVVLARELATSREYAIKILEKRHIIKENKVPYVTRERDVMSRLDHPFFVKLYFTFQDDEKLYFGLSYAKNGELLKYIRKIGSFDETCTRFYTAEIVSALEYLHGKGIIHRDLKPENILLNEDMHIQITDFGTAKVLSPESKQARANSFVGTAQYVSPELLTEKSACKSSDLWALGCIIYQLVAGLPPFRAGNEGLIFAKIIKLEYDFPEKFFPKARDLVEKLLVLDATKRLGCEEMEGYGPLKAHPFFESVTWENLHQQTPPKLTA
Method: For local exchange analysis, the labeled proteins were digested with pepsin and the resulting polypeptides analyzed by tandem mass-spectrometry (LC-MS/MS) for their incorporation of deuterium atoms. The graphics represent the number of deuterium atoms incorporated into each polypeptide upon the stated incubation time in deuterated water. […] Over time, amide hydrogen atoms exchanged for deuteriums and the molecular weight of the protein increased. We repeated the ^1H/^2H exchange experiments at four different incubation times: 1, 5, 15 and 45 minutes. […] In the presence of peptide or small compounds, protein and ligand solution were pre-incubated on ice for 50 min before the mixture was diluted into labeling buffer. After the exchange reaction, samples were loaded on a pepsin column for one minute for digestion into peptides and samples quenched at each time point. They were then subjected to liquid chromatography for separation and analyzed by tandem mass-spectrometry (LC-MS/MS) for their incorporation of deuterium atoms. The entire plumbing system was immersed in an ice bath. 61 polypeptides were identified with overlapping regions, covering 80% of PDK1 sequence. As it is not possible to predict the cleavage sites of pepsin in the PDK1 sequence, it was necessary to identify the peptides generated by pepsin digestion for local-exchange analysis.

Chain of PDK1 (O15530 51-360 limits assumed): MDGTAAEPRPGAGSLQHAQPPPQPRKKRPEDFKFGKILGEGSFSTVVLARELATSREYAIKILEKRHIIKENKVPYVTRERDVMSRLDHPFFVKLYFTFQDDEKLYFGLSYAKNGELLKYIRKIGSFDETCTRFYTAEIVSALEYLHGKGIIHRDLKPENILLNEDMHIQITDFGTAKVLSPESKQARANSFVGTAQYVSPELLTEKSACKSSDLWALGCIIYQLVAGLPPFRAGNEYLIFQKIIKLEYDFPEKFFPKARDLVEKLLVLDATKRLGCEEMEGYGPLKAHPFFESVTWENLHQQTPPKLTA

REPRILSEEEQEMFRDFDYIADWC [PIFtide]
decreased affinity for PIFtide of the Tyr126 mutant [1]: over 30 fold | activation of PDK1 [2]: activated | displacement by PIFtide of PDK1[Phe224Trp] binding to the chip [3]: displaced | displacement by PIFtide of PDK1[Thr226Trp] binding to the chip [4]: displaced | global exchange protection, 2H less incorporated/PDK1 molecule ([5]; after 45 minutes, PIFtide 0.625 mM, PS48 500 μM, PS08 250 μM): 20 ^2H | 2H less incorporated (protection), peptide 122-134 (α-C-helix) ([5]; first time point (1 min)): five
